Laboratory results published in patent US20110020786A1, “PEPTIDE DENDRIMERS: AFFINITY REAGENTS FOR BINDING NOROVIRUSES” (BAYLOR COLLEGE OF MEDICINE, priority 2007, published 2011).
Ends that are not written are not given here.

Target: NoVLPs (Norovirus-like particles) (so in the source)
Experiment: SPR (BIAcore), NoVLPs immobilized, dendrimer injected at 8-240 µM, steady-state fit of the equilibrium average response

B1: …8 (the octovalent dendrimer of SEQ ID NO: 1) (peptide)
peptide: RHFQTHTVPLSL
modifications: also: octovalent MAP dendrimer, eight copies on branching lysine core
**Q.** With B1 as the binder, how does the Kd read?
**A.** 117 µM
